# Measurements from patent publication US20260183365A1, “COMBINATION THERAPY FOR C3 INHIBITION” (Apellis Pharmaceuticals, Inc., priority 2016, published 2026).
# Legend:
# [1] = Phase 1 single and multiple ascending dose trial of inhaled (nebulized) CA28 in healthy volunteers; type: in vivo, human
# Protocol: In the single ascending dose part of the trial, 16 subjects were enrolled in four cohorts of four subjects each.
# Four subjects were enrolled in the first cohort of the multiple ascending dose part of the trial. These subjects were to receive 14 consecutive days of treatment with a 60 mg/day dose of the drug. […] The trial was paused and subsequently resumed, with subjects receiving 30 mg/day. […] The trial was then terminated.
# complement component C3 [2] = biological target: T1, complement component C3 (human, UniProt P01024 23-1663); assay: cell-based or functional assay
# complement component C3 [3] = biological target: T1, complement component C3; assay: cell-based or functional assay; remark: listed apart in the source
Molecule,"IC50 (read off the curve) (classical pathway complement activation, C3b deposition ELISA with human plasma) (complement component C3 [2]) [nM]",also measured
CC[C@H](C)[C@H](NC(C)=O)C(=O)N[C@H]1CSSC[C@@H](C(=O)N[C@H](C(N)=O)[C@@H](C)O)NC(=O)[C@H](CCCNC(=N)N)NC(=O)[C@H](Cc2cnc[nH]2)NC(=O)[C@H](C)NC(=O)CNC(=O)[C@H](Cc2c[nH]c3ccccc23)NC(=O)[C@H](CC(=O)O)NC(=O)[C@H](CCC(N)=O)NC(=O)[C@H](Cc2cn(C)c3ccccc23)NC(=O)[C@H](C(C)C)NC1=O [CA28],–,"adverse event ([1]; inhaled 30 mg/day, after 10 days): Another subject developed signs and symptoms consistent with a potential bacterial infection; adverse event ([1]; inhaled 60 mg/day, after nine days): one subject developed signs and symptoms consistent with a potential bacterial infection"
ICVWQDWGAHRCTK (not fully specified; N-terminal acetyl; (1Me)Trp at position 4; disulfide Cys2-Cys12; AEEAc between Thr13 and Lys; linear monofunctional 40 kD PEG (NOF ME-400GS) on the Lys side chain; C-terminal amide) [CA28-AEEAc-Lys-(PEG40k)],~700,–
ICVWQDWGAHRCTK (not fully specified; N-terminal acetyl; (1Me)Trp at position 4; disulfide Cys2-Cys12; AEEAc between Thr13 and Lys; Lys side chain linked by a carbamate to one end of a bifunctional linear 40 kD PEG of the TS type; C-terminal amide) [CA28-2TS-BF],–,"IC50 (read off the curve) (alternative pathway complement activation, LPS-coated plate, C3b deposition ELISA) [B] (complement component C3 [3]): ~400 nM"
ICVWQDWGAHRCTK (not fully specified; N-terminal acetyl; (1Me)Trp at position 4; disulfide Cys2-Cys12; AEEAc between Thr13 and Lys; 40 kD mPEG (NOF ME-400CS) on the Lys15 side chain; C-terminal amide) [CA28-AEEAc-Lys(mPEG40K-succinyl)],~700,–
ICVWQDWGAHRCTK (not fully specified; N-terminal acetyl; (1Me)Trp at position 4; disulfide Cys2-Cys12; AEEAc between Thr13 and Lys; 40 kD mPEG (NOF ME-400HS) on the Lys15 side chain; C-terminal amide) [CA28-AEEAc-Lys(mPEG40K-hexanoyl)],~700,–
ICVWQDWGAHRCTK (not fully specified; N-terminal acetyl; (1Me)Trp at position 4; disulfide Cys2-Cys12; AEEAc between Thr13 and Lys; 40 kD mPEG (NOF ME-400TS) on the Lys15 side chain; C-terminal amide) [CA28-AEEAc-Lys(mPEG40K-carbonyl)],~700,–
